Target: SARS2 spike protein with C-terminal 19aa deletion, on S protein pseudotyped lentivirus (SARS-CoV-2, UniProt P0DTC2 13-1254)
Test: cell-based or functional assay

Binder	Pseudovirus neutralization IC50
2094 (antibody, V domains shown) VH: EVQLVESGGGVVRPGGSLRLSCAASGFIFDDYDMTWVRQAPGKGLEWVSGINWNGGSTGYADSVKGRFTISRDNAKNSLYLQMNSLRAEDTALYHCAVIMSPIPRYSGYDWAGDAFDIWGQGTMVTVSS VL: SSELTQDPAVSVALGQTVRITCQGDSLRSYYASWYQQKPGQVPILVIYDKNNRPSGIPDRFSGSSSGNTASLTITGAQAEDEADYYCNSRDSSGNAVVFGGGTKLTVL	3 ng/mL
2096 (antibody, V domains shown) VH: QVQLVQSGAEVKKPGASVKVSCKASGYTFGSFDINWVRQATGQGLEWMGRMNSNSGNTAYAQKFQGRVTMTRDTSTNTAYMELSSLRSEDTAMYYCARMRSGWPTHGRPDDFWGRGTLVTVSS VL: QSVLTQAPSASGTPGQRVTISCSGSNSNIGSYTINWYQQLPGTAPKLLIYGNDQRTSGVPDRFSGSKFGTSASLAISGLQSEDENNYYCAVWDDSLNGLVFGGGTKLTVL	3.3 ng/mL

Source: US20240182548A1 (AstraZeneca / MedImmune, published 2024)
